Measured values as given in patent US8133482B2, “Activatable photodynamic therapy agents” (The Trustees of the University of Pennsylvania, priority 2003, dated 2012).
The star is where a group is joined. Mu = morpholinocarbonyl cap, O=C(N1CCOCC1)*; Dox = doxorubicin

Assays:
[1] = photophysical properties of pyropheophorbide acid (1O2 yield); type: physicochemical
PSA = PSA (Homo sapiens, UniProt P07288); conditions: incubation with enzymatically active PSA, HPLC detection; cited from earlier work
Sequence of PSA (P07288 25-261): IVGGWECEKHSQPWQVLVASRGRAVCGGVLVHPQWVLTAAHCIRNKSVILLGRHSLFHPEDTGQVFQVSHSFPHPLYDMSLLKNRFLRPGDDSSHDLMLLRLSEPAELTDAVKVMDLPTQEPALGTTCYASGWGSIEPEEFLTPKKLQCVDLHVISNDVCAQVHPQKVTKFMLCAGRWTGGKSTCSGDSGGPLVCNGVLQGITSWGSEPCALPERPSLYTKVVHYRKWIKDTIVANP

Molecule	1O2 yield [1] [%]	hydrolysis by PSA (PSA)
C=Cc1c(C)c2cc3nc(c4c5[nH]c(cc6nc(cc1[nH]2)C(C)=C6CC)c(C)c5C(=O)C4)[C@@H](CCC(=O)O)[C@@H]3C [Pyropheophorbide acid, pyropheophorbide acid]	45	
Ac-HSSKLQ(SEQ ID NO:13)-Dox (Ac-HSSKLQ-Dox)		unable to hydrolyze
Mu-HS SKLQ(SEQ ID NO:13)-Leu-Dox (Mu-HSSKLQL-Dox)		resulted in production of Leu-Dox
